The text below walks through data of PMC9482095.

For data set [1], the target named is T1, FOXO1 FKH wt (UniProt Q12778 151-265). In words: EMSA. Background: Mobility shift assays separate free from complexed probe on a gel.
Data set [2] has as its target T1, FOXO1 FKH wt. In words: EMSA. The source holds these as a separate data set.

Where two headings read alike, the source gives them in different places.

B1: dsDBE2 (dsDNA)
DNA 1: TAAGCTAGTCTTGTTTACATTTTGCTAGCAAT
DNA 2: ATTGCTAGCAAAATGTAAACAAGACTAGCTTA
Consider B1, for which, in the data set with FOXO1 FKH wt [1], the affinity, expressed as Kd, was 90 nM.

B2: dsIRE (dsDNA)
DNA 1: TAAGCTAGTGGTTTGTTTTGCTTGCTAGCAAT
DNA 2: ATTGCTAGCAAGCAAAACAAACCACTAGCTTA
Turning to B2, binding in the data set with FOXO1 FKH wt [2] was characterised by a dissociation constant (Kd) of 200 ± 70 nM.
